From patent publication US20110142849A1 (IRM, published 2011)

T1: hAgr2 (human, UniProt O95994)
T1 construct: panel antigen of the specificity ELISA
T1 sequence (antigen, looked up): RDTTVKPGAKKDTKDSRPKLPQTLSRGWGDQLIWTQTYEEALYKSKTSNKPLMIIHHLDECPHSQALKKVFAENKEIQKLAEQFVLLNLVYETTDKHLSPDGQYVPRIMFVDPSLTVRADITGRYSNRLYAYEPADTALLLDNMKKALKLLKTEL

T2: hFGFR4 (human, UniProt P22455)
T2 construct: panel antigen of the specificity ELISA
T2 sequence (antigen, looked up): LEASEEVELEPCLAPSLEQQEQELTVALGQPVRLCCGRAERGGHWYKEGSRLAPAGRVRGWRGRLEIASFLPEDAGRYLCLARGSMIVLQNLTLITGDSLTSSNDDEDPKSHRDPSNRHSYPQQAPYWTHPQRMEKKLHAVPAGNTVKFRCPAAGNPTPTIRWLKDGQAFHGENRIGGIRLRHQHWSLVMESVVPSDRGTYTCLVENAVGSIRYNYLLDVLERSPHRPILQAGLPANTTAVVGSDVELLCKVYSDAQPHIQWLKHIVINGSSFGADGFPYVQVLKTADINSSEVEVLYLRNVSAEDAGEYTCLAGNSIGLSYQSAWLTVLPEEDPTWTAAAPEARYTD

T3: hGITR (human, UniProt Q9Y5U5)
T3 construct: panel antigen of the specificity ELISA
T3 sequence (antigen, looked up): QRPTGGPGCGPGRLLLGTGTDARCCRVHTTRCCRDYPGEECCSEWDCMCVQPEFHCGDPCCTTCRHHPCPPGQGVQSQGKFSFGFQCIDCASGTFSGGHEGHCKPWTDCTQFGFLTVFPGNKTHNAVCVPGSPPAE

T4: hβ-Klotho (human, UniProt Q86Z14)
T4 construct: panel antigen of the specificity ELISA
T4 sequence (antigen, looked up): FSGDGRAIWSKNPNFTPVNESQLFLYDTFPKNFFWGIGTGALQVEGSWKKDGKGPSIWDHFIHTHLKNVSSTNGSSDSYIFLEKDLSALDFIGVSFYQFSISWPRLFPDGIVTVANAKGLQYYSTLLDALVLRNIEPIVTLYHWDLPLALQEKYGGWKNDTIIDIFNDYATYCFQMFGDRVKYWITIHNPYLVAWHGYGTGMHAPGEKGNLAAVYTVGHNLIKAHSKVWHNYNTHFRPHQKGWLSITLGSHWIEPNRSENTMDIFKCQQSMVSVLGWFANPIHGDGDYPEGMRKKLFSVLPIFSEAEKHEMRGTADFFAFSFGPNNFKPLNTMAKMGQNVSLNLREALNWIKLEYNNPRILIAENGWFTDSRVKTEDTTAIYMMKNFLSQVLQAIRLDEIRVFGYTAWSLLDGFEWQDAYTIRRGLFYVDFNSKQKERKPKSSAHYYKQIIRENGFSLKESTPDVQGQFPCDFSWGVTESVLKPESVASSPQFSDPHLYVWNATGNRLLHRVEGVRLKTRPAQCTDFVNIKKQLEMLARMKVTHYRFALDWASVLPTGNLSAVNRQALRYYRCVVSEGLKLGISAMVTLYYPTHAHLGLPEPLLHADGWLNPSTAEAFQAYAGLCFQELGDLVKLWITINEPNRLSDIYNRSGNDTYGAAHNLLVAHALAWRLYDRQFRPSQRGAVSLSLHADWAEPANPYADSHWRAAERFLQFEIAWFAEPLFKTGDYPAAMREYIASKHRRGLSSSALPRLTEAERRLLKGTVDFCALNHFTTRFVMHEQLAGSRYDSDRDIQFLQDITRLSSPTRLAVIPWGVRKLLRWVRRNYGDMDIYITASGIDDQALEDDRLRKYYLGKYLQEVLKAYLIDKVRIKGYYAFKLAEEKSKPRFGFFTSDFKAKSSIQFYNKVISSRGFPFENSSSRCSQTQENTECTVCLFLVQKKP

T5: hNotch-3 NRR (human, UniProt Q9UM47)
T5 construct: panel antigen of the specificity ELISA
T5 sequence (antigen, looked up): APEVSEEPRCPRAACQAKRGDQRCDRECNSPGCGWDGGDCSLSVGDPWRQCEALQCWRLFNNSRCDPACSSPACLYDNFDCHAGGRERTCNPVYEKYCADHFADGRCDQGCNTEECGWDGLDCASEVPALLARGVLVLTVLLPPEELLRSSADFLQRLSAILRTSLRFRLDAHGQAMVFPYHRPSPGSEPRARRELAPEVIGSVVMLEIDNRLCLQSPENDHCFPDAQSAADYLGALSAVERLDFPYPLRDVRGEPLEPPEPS


Key:
[1] = target: T6, recombinant human Pcsk9 (aa 31-692) with C-terminal his6 tag (human, UniProt Q8NBP7 31-692); assay: ForteBio Octet, purified Fab
T6 construct: In the TR-FRET assay it carried a fluorophore (hPcsk9-AF); also called hPCSK9; hPcsk9
T6 sequence (Q8NBP7 other isoform, or with tags, fused parts or gaps limits assumed, form in doubt): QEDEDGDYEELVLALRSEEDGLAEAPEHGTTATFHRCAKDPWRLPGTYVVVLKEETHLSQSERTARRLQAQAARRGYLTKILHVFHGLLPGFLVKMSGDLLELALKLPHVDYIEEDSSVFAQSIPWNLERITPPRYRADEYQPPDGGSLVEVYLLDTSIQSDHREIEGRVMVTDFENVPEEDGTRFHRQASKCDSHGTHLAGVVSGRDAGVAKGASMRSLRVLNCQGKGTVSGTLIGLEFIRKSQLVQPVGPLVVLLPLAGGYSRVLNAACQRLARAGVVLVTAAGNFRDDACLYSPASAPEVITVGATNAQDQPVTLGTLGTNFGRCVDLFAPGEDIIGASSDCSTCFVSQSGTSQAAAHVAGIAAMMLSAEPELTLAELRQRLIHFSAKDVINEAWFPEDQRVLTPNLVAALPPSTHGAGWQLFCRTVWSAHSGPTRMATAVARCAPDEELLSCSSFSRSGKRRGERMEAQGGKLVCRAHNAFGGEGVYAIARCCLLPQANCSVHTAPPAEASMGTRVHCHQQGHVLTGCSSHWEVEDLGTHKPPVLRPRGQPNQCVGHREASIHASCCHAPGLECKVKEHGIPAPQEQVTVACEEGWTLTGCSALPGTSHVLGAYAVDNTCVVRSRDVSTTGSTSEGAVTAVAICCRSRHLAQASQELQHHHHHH

[2] = target: T7, mouse Pcsk9 with C-terminal his6 tag (mouse, UniProt Q80W65 35-694, limits assumed); assay: not told in the legend
T7 construct: also called murine PCSK9
T7 sequence (Q80W65 other isoform, or with tags, fused parts or gaps limits assumed): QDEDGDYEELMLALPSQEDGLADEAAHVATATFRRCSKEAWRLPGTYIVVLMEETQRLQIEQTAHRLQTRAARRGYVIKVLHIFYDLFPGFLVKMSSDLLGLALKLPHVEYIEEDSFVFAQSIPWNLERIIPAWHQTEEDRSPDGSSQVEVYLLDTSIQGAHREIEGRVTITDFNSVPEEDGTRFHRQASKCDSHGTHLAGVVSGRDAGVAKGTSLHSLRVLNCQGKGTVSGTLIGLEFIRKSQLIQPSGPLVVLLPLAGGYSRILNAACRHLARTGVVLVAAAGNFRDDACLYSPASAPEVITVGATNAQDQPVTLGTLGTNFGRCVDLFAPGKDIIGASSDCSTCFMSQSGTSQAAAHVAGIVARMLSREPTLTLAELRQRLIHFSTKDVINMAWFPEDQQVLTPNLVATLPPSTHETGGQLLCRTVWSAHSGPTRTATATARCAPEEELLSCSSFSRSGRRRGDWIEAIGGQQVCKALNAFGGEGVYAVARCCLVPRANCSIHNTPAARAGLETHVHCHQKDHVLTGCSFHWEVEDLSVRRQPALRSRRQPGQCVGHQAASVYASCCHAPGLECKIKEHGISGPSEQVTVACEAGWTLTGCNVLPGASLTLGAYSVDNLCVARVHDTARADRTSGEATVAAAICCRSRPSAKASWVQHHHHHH

[3] = target: T6, recombinant human Pcsk9 (aa 31-692) …; assay: Solution Equilibrium Titration (SET), MSD read-out
Experimental: The binding kinetics of IgGs and Fab fragments were analyzed using a Solution Equilibrium Titration (“SET”) assay. Briefly, serial dilutions of hPCSK9 were added to 60 pM IgG or Fab and incubated overnight. A 96-well Standard Bind microtiter plate (Meso Scale Discovery) was coated with 1 μg/ml hPCSK9 and incubated overnight, washed with PBS/0.05% (w/v) Tween 20, blocked with PBS/5% (w/v) BSA, and washed again. The antibody-antigen preparation was added to the PCSK9-coated Standard Bind plate and incubated for 30 min at room temperature. After three additional washing steps, Sulfo-Tag-labeled goat-anti-human-detection antibody (R32AJ-5, Meso Scale Discovery) was added and incubated one hour at room temperature. After washing the plate three times, Read Buffer (Meso Scale Discovery) was added and electrochemiluminescence (ECL) signals were measured by a Sector Imager 6000 (Meso Scale Discovery). ECL data were processed with the excel add-in XLfit 4.3.2 (ID Business Solutions) using the fitting model applicable for antibodies described in Piehler, et al., (1997) J Immunol Methods 201:189-206.

hAgr2 = target: T1, hAgr2; assay: specificity ELISA on coated antigen (88 ng per well), antibody at 2 µg/mL, ABS650
Experimental: (§1) For specificity ELISAs on purified human and mouse IgGs, a 384-well plate was coated with a panel of purified human or mouse antigens at 88 ng per well and incubated overnight at 4° C. The plate was blocked and washed as described above, then 22 μL of purified mouse or human anti-PCSK9 antibody diluted to 2 μg/mL in PBS was added to each well. The plate was incubated for 1 hr at 37° C. then washed with PBST. Anti-mouse Fc antibody (Jackson ImmunoResearch Labs #115-035-071) or anti-human kappa antibody (Sigma #A7164) conjugated to HRP was diluted 1:5000 in PBS (25 μL) and added to each well. The plate was incubated for 1 hr at room temperature, then washed and developed as described above.
(§2) In order to test whether the antigen specificity of the parental mouse antibody LFU720 was retained in the final Humaneered™ IgGs, LGT209, LGT210 and LGT211, binding of the antibodies to a panel of human and mouse antigens (as well as human PCSK9) was tested in an ELISA assay.

hTrkB = target: T8, hTrkB (human, UniProt Q16620); assay: as above
T8 construct: panel antigen of the specificity ELISA
T8 sequence (Q16620 32-430 limits assumed): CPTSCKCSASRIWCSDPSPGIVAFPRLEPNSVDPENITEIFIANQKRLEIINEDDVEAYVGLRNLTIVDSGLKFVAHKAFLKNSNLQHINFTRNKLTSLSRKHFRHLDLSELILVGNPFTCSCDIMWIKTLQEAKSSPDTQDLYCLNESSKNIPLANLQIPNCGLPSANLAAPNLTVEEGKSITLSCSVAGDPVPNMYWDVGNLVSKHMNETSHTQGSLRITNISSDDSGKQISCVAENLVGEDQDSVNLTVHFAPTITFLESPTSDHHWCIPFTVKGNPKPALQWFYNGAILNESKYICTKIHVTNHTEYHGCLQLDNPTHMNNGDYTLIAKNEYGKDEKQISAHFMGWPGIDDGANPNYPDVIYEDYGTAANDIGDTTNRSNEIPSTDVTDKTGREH
Experimental: as §1, §2

hDDR1 = target: T9, hDDR1 (human, UniProt Q08345); assay: as above
T9 construct: panel antigen of the specificity ELISA
T9 sequence (Q08345 21-416 limits assumed): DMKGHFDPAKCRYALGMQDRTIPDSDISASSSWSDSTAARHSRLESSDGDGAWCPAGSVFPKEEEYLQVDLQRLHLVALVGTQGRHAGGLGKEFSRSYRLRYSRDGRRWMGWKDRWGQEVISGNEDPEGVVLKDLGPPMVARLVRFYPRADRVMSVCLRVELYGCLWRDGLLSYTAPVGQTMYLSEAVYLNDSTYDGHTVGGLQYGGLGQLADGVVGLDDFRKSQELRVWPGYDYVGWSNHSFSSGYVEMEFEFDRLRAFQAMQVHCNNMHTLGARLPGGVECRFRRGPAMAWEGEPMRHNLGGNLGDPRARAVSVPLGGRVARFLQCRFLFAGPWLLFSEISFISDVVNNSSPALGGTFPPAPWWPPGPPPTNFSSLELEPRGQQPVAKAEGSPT
Experimental: as §1, §2

hFGFR4 = target: T2, hFGFR4; assay: as above
Experimental: as §1, §2

hGITR = target: T3, hGITR; assay: as above
Experimental: as §1, §2

hIL-12RB1 = target: T10, hIL-12RB1 (human, UniProt P42701); assay: as above
T10 construct: panel antigen of the specificity ELISA
Experimental: as §1, §2

hβ-Klotho = target: T4, hβ-Klotho; assay: as above
Experimental: as §1, §2

hNotch-3 NRR = target: T5, hNotch-3 NRR; assay: as above
Experimental: as §1, §2

hRspo-2 = target: T11, hRspo-2 (human, UniProt Q6UXX9); assay: as above
T11 construct: panel antigen of the specificity ELISA
T11 sequence (Q6UXX9 22-243 limits assumed): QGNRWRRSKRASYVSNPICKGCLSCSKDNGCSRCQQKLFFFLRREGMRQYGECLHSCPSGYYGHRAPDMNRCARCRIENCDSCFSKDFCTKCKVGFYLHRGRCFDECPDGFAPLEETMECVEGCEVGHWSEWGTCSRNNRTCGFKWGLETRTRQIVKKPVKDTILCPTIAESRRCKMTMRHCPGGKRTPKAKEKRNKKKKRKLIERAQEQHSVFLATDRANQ
Experimental: as §1, §2

Row | Binder | Kd [1] [pM] | binding result [2] | Kd [3] [pM] | binding result (hAgr2) | binding result (hTrkB) | binding result (hDDR1) | binding result (hFGFR4) | binding result (hGITR) | binding result (hIL-12RB1) | binding result (hβ-Klotho) | binding result (hNotch-3 NRR) | binding result (hRspo-2)
1 | CDRH1-variant Fab SR079 (Fab, V domains shown, also called SR079 (humaneered)) VH: QVQLVQSGAEVKKPGASVKVSCKASGYTFSTMYMSWVRQAPGQGLEWMGRIDPANGHTNYAQKFQGRVTMTRDTSISTAYMELSRLTSDDTAVYYCARSYYYYAMDYWGQGTLVTVSS VL: EIVMTQSPATLSVSPGERATLSCRASQSVSSSHVAWYQQKPGQAPRLLIYGVFRRATGIPDRFSGSGSGTDFTLTIGRLEPEDFAVYYCLQWSSDPPTFGQGTKLEIK | 54200 |  |  |  |  |  |  |  |  |  |  | 
2 | NVP-LGT209 (antibody, human IgG1, Silent human IgG1 kappa made in 293 Freestyle cells; also called pJG04 (Vh) + pJG10 (Vk)) heavy: not shown light: QIVLTQSPATLSVSPGERATLSCRASQSVSYMHWYQQKPGQAPRLLIYGVFRRATGIPDRFSGSGSGTDFTLTIGRLEPEDFAVYYCLQWSSDPPTFGQGTKLEIKRTVAAPSVFIFPPSDEQLKSGTASVVCLLNNFYPREAKVQWKVDNALQSGNSQESVTEQDSKDSTYSLSSTLTLSKADYEKHKVYACEVTHQGLSSPVTKSFNRGEC |  | no binding | 190 | no binding (tested: 2 µg/mL) | no binding (tested: 2 µg/mL) | no binding (tested: 2 µg/mL) | no binding (tested: 2 µg/mL) | no binding (tested: 2 µg/mL) | no binding (tested: 2 µg/mL) | no binding (tested: 2 µg/mL) | no binding (tested: 2 µg/mL) | no binding (tested: 2 µg/mL)
3 | NVP-LGT210 (antibody, human IgG1, Silent human IgG1 kappa; also called pJG04 (Vh) + pJG01 (Vk)) heavy: not shown light: EIVMTQSPATLSVSPGERATLSCRASQSVSYMHWYQQKPGQAPRLLIYGVFRRATGIPDRFSGSGSGTDFTLTIGRLEPEDFAVYYCLQWSSDPPTFGQGTKLEIKRTVAAPSVFIFPPSDEQLKSGTASVVCLLNNFYPREAKVQWKVDNALQSGNSQESVTEQDSKDSTYSLSSTLTLSKADYEKHKVYACEVTHQGLSSPVTKSFNRGEC |  | no binding | 150 | no binding (tested: 2 µg/mL) | no binding (tested: 2 µg/mL) | no binding (tested: 2 µg/mL) | no binding (tested: 2 µg/mL) | no binding (tested: 2 µg/mL) | no binding (tested: 2 µg/mL) | no binding (tested: 2 µg/mL) | no binding (tested: 2 µg/mL) | no binding (tested: 2 µg/mL)
